Molecular target: T1, human ICOS (inducible T-cell co-stimulator) (human, UniProt Q9Y6W8 21-199)
T1 construct: also called the ICOS receptor
T1 sequence: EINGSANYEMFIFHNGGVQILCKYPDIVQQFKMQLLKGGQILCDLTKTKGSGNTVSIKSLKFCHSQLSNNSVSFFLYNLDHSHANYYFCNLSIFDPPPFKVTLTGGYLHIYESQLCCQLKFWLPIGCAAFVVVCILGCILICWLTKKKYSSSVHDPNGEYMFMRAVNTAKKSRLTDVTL
Test: ICOS receptor occupancy (free ICOS detection) on peripheral CD4 memory T cells in longitudinal PBMC samples, chipcytometry, patient dosed with KY1044 in vivo

B1: KY1044 (aka STIM003), fully human IgG1 anti-ICOS antibody (antibody, V domains shown)
VH: EVQLVESGGGVVRPGGSLRLSCVASGVTFDDYGMSWVRQAPGKGLEWVSGINWNGGDTDYSDSVKGRFTISRDNAKNSLYLQMNSLRAEDTALYYCARDFYGSGSYYHVPFDYWGQGILVTVSS
VL: EIVLTQSPGTLSLSPGERATLSCRASQSVSRSYLAWYQQKRGQAPRLLIYGASSRATGIPDRFSGDGSGTDFTLSISRLEPEDFAVYYCHQYDMSPFTFGPGTKVDIKR
Q: Does B1 bind?
A: binds

— patent US20240190964A1 (KYMAB, published 2024)
